The values that follow come from patent publication US20160090425.

The target in the data set is six other anti-C1s binding antibodies.

B1: human C1s enzyme purified from human plasma (Complement Technology Inc., Cat # A103) (protein)
chain: EPTMYGEILSPNYPQAYPSEVEKSWDIEVPEGYGIHLYFTHLDIELSENCAYDSVQIISGDTEEGRLCGQRSSNNPHSPIVEEFQVPYNKLQVIFKSDFSNEERFTGFAAYYVATDINECTDFVDVPCSHFCNNFIGGYFCSCPPEYFLHDDMKNCGVNCSGDVFTALIGEIASPNYPKPYPENSRCEYQIRLEKGFQVVVTLRREDFDVEAADSAGNCLDSLVFVAGDRQFGPYCGHGFPGPLNIETKSNALDIIFQTDLTGQKKGWKLRYHGDPMPCPKEDTPNSVWEPAKAKYVFRDVVQITCLDGFEVVEGRVGATSFYSTCQSNGKWSNSKLKCQPVDCGIPESIENGKVEDPESTLFGSVIRYTCEEPYYYMENGGGGEYHCAGNGSWVNEVLGPELPKCVPVCGVPREPFEEKQRIIGGSDADIKNFPWQVFFDNPWAGGALINEYWVLTAAHVVEGNREPTMYVGSTSVQTSRLAKSKMLTPEHVFIHPGWKLLEVPEGRTNFDNDIALVRLKDPVKMGPTVSPICLPGTSSDYNLMDGDLGLISGWGRTEKRDRAVRLKAARLPVAPLRKCKEVKVEKPTADAEAYVFTPNMICAGGEKGMDSCKGDSGGAFAVQDPNDKTKFYAAGLVSWGPQCGTYGLYTRVKNYVDWIMKTMQENSTPRED
Turning to B1, the “C1s-mediated C4 α-chain cleavage (SDS gel), antibody at approximately 10-fold molar excess” value was “six other anti-C1s binding antibodies, including the C1s binding antibody 3F8 (see FIG. 1, Example 2), did not show inhibitory activity”.
